Results published in US20220177587A1 (Alpine Immune Sciences, Inc., published 2022).
Positions count from the first letter of the chain named. Names and notes keep the numbering of the source. Values belong to the binder of their own block, whether it stands above or below them.

Columns and labels:
human PD-L1 = human PD-L1 (human, UniProt Q9NZQ7); assay: flow cytometry, CHO/PD-L1 cells; MFI over CD80 WT IgV-Fc
human CTLA-4 = human CTLA-4 (human, UniProt P16410); assay: flow cytometry, CHO/CTLA4 cells; MFI over CD80 WT IgV-Fc
human CD28 [1] = molecular target: human CD28 (human, UniProt P10747); assay: flow cytometry, Jurkat cells (CD28); MFI over CD80 WT IgV-Fc
human CD28 [2] = molecular target: human CD28 (human, UniProt P10747); assay: cell-based or functional assay

B1: CD80 E35D/M47V/N48K/V68M/K89N IgV-Fc, delta linker (Fc fusion)
chain: VIHVTKEVKEVATLSCGHNVSVEELAQTRIYWQKDKKMVLTMMSGDVKIWPEYKNRTIFDITNNLSIMILALRPSDEGTYECVVLKYENDAFKREHLAEVTLSVKTHTCPPCPAPEAEGAPSVFLFPPKPKDTLMISRTPEVTCVVVDVSHEDPEVKFNWYVDGVEVHNAKTKPREEQYNSTYRVVSVLTVLHQDWLNGKEYKCKVSNKALPAPIEKTISKAKGQPREPQVYTLPPSREEMTKNQVSLTCLVKGFYPSDIAVEWESNGQPENNYKTTPPVLDSDGSFFLYSKLTVDKSRWQQGNVFSCSVMHEALHNHYTQKSLSLSPG
Fold change to WT CD80 (human PD-L1): 439 fold | Fold change to WT CD80 (human CTLA-4): 2.6 fold | Fold change to WT CD80 (human CD28 [1]): 83.7 fold

B2: CD80 E35D/D46V/M47L/V68M/L85Q/E88D IgV-Fc, delta linker (Fc fusion)
chain: B1 chain with D46V, V47L, K48N, L85Q, E88D, N89K
Fold change to WT CD80 (human PD-L1): 484 fold | Fold change to WT CD80 (human CTLA-4): 10.2 fold | Fold change to WT CD80 (human CD28 [1]): 74.7 fold

Now from value to binder:

CD28 costimulation EC50, Jurkat/IL-2 luciferase reporter; SIP 2 (Supernatant) from Donor 1 Pan T-cells (human CD28 [2]): 0.282 nM | CD28 costimulation EC50, Jurkat/IL-2 luciferase reporter; SIP 2 (Supernatant) from Donor 2 Pan T-cells (human CD28 [2]): 0.75 nM | CD28 costimulation EC50, Jurkat/IL-2 luciferase reporter; SIP 2 (Supernatant) from Jurkat cells (human CD28 [2]): 0.75 nM
B3: SIP 2: Variant CD80 IgV-GSG4S-Inert Fc (E35D, D46V, M47L, and V68M) (Fc fusion)
chain: VIHVTKEVKEVATLSCGHNVSVEELAQTRIYWQKDKKMVLTMMSGVLNIWPEYKNRTIFDITNNLSIMILALRPSDEGTYECVVLKYEKDAFKREHLAEVTLSVKADGSGGGGSEPKSSDKTHTCPPCPAPEAEGAPSVFLFPPKPKDTLMISRTPEVTCVVVDVSHEDPEVKFNWYVDGVEVHNAKTKPREEQYNSTYRVVSVLTVLHQDWLNGKEYKCKVSNKALPAPIEKTISKAKGQPREPQVYTLPPSRDELTKNQVSLTCLVKGFYPSDIAVEWESNGQPENNYKTTPPVLDSDGSFFLYSKLTVDKSRWQQGNVFSCSVMHEALHNHYTQKSLSLSPG

CD28 costimulation EC50, Jurkat/IL-2 luciferase reporter; SIP 3 (Supernatant) from Donor 1 Pan T-cells (human CD28 [2]): 0.294 nM | CD28 costimulation EC50, Jurkat/IL-2 luciferase reporter; SIP 3 (Supernatant) from Donor 2 Pan T-cells (human CD28 [2]): 0.961 nM | CD28 costimulation EC50, Jurkat/IL-2 luciferase reporter; SIP 3 (Supernatant) from Jurkat cells (human CD28 [2]): 0.961 nM
B4: SIP 3: Variant CD80 IgV-GSG4S-Inert Fc (H18Y, E35D, M47V, V68M, and A71G) (Fc fusion)
chain: B3 chain with H18Y, V46D, L47V, A71G

CD28 costimulation EC50, Jurkat/IL-2 luciferase reporter; SIP 4 (Supernatant) from Donor 1 Pan T-cells (human CD28 [2]): 0.153 nM | CD28 costimulation EC50, Jurkat/IL-2 luciferase reporter; SIP 4 (Supernatant) from Donor 2 Pan T-cells (human CD28 [2]): 0.221 nM | CD28 costimulation EC50, Jurkat/IL-2 luciferase reporter; SIP 4 (Supernatant) from Jurkat cells (human CD28 [2]): 0.221 nM
B5: SIP 4: Variant CD80 IgV-GSG4S-Inert Fc (H18Y, A26P, E35D, M47I, V68M, and A71G) (Fc fusion)
chain: B3 chain with H18Y, A26P, V46D, L47I, A71G
